{"source": "paper PMC4550541", "about": "(Protein Engineering, Design and Selection, 2015)", "binders": {"B1": {"name": "DARPin F1 (designed binder)", "chain": "DLGKKLLEAARAGEDDEVRVLMANGADVNAKDEYGLAPLYHATAHGHLEIVEVLLKNGADVNAVDAIGFTPLHLAAFIGHLEIAEVLLRHGADVNAQDKFGKTAFDISIDNVNEDLAEILQKL", "notes": "source: E. coli M15 (pQE30), purified (His trap; SEC on Superdex 75 for large scale); not shown: His6, N-terminal, kept"}}, "biological_target": "HER2 (extracellular domain only), soluble, recombinantly expressed, biotinylated (human) (UniProt P04626)", "assay": "BLI; Octet Red; biotinylated HER2 (10 μg/ml) loaded on streptavidin biosensors, DARPins in solution (eight concentrations, highest 50 nM); PBS pH 7.4, 0.01% BSA, 0.01% Tween 20; 1:1 Langmuir model, global kinetic fit", "data": [{"binder": "B1", "values": [{"measurement": "Kd", "result": 0.39, "unit": "nM"}, {"measurement": "koff", "result": 0.00037, "unit": "s⁻¹"}, {"measurement": "kon", "result": 950000, "unit": "M⁻¹ s⁻¹"}]}]}
